This is an account of results in PMC11432006, “Functional Divergence in the Affinity and Stability of Non-Canonical Cysteines and Non-Canonical Disulfide Bonds: Insights from a VHH and VNAR Study” (International Journal of Molecular Sciences, 2024).

This test has as its target T1, GFP-BC2-tag (Homo sapiens (beta-catenin-derived …, UniProt P35222)).
T1 construct: also called BC2 peptide
T1 chain: PDRKAAVSHWQQ
Kind of test: SPR; Biacore 8k; antigen (lysozyme or GFP-BC2-tag) amine-coupled to a CM5 chip, single-domain antibody flowed over at 30 µL/min; running buffer 137 mM NaCl, 2.7 mM KCl, 10 mM Na2HPO4, 1.8 mM KH2PO4 pH 7.5, room temperature; 1:1 Langmuir model. The following applies: both partners purified. Background: In SPR one partner is held on a chip, and binding of the other changes the refractive index at the surface.

B1: BC2-Nb_(C55A_C110S) (VHH)
VHH: QVQLVESGGGLVQPGGSLTLSCTASGFTLDHYDIGWFRQAPGKEREGVSAINNSDDDTYYADSVKGRFTIFMNNAKDTVYLQMNSLKPEDTAIYYCAEARGSKRGRYEYDFWGQGTQVTVSS
notes: also called BC2-Nb mutant
For the molecule B1, the binding result was “no binding (tested: 5000 nM)”.
